Molecular target: eIF2B(αβδγε)2 decamer, eIF2Bβ Avi-tagged and biotinylated (human) (UniProt Q14232)
Test: SPR

Sandfly Fever Sicilian virus (SFSV) NSs protein with C-terminal 6xHIS tag (NSs::6xHIS) (natural protein)
Kd: 0.043 µM

Source: publication doi:10.1101/2021.06.07.447473
